T1: Bovine, dephosphorylated, Myelin Basic Protein (MBP), P02687
T1 chain: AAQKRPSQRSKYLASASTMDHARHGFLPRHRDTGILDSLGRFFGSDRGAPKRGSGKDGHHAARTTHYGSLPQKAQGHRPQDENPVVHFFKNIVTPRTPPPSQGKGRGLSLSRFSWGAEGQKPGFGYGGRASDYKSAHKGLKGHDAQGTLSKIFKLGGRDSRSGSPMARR


Molecular target: T1, Bovine, dephosphorylated, Myelin Basic …

Protein | MBP Kinase Activity
MAP3K5(ASK1) (protein) MSTEADEGITFSVPPFAPSGFCTIPEGGICRRGGAAAVGEGEEHQLPPPPPGSFWNVESAAAPGIGCPAATSSSSATRGRGSSVGGGSRRTTVAYVINEASQGQLVVAESEALQSLREACETVGATLETLHFGKLDFGETTVLDRFYNADIAVVEMSDAFRQPSLFYHLGVRESFSMANNIILYCDTNSDSLQSLKEIICQKNTMCTGNYTFVPYMITPHNKVYCCDSSFMKGLTELMQPNFELLLGPICLPLVDRFIQLLKVAQASSSQYFRESILNDIRKARNLYTGKELAAELARIRQRVDNIEVLTADIVINLLLSYRDIQDYDSIVKLVETLEKLPTFDLASHHHVKFHYAFALNRRNLPGDRAKALDIMIPMVQSEGQVASDMYCLVGRIYKDMFLDSNFTDTESRDHGASWFKKAFESEPTLQSGINYAVLLLAAGHQFESSFELRKVGVKLSSLLGKKGNLEKLQSYWEVGFFLGASVLANDHMRVIQASEKLFKLKTPAWYLKSIVETILIYKHFVKLTTEQPVAKQELVDFWMDFLVEATKTDVTVVRFPVLILEPTKIYQPSYLSINNEVEEKTISIWHVLPDDKKGIHEWNFSASSVRGVSISKFEERCCFLYVLHNSDDFQIYFCTELHCKKFFEMVNTITEEKGRSTEEGDCESDLLEYDYEYDENGDRVVLGKGTYGIVYAGRDLSNQVRIAIKEIPERDSRYSQPLHEEIALHKHLKHKNIVQYLGSFSENGFIKIFMEQVPGGSLSALLRSKWGPLKDNEQTIGFYTKQILEGLKYLHDNQIVHRDIKGDNVLINTYSGVLKISDFGTSKRLAGINPCTETFTGTLQYMAPEIIDKGPRGYGKAADIWSLGCTIIEMATGKPPFYELGEPQAAMFKVGMFKVHPEIPESMSAEAKAFILKCFEPDPDKRACANDLLVDEFLKVSSKKKKTQPKLSALSAGSNEYLRSISLPVPVLVEDTSSSSEYGSVSPDTELKVDPFSFKTRAKSCGERDVKGIRTLFLGIPDENFEDHSAPPSPEEKDSGFFMLRKDSERRATLHRILTEDQDKIVRNLMESLAQGAEEPKLKWEHITTLIASLREFVRSTDRKIIATTLSKLKLELDFDSHGISQVQVVLFGFQDAVNKVLRNHNIKPHWMFALDSIIRKAVQTAITILVPELRPHFSLASESDTADQEDLDVEDDHEEQPSNQTVRRPQAVIEDAVATSGVSTLSSTVSHDSQSAHRSLNVQLGRMKIETNRLLEELVRKEKELQALLHRAIEEKDQEIKHLKLKSQPIEIPELPVFHLNSSGTNTEDSELTDWLRVNGADEDTISRFLAEDYTLLDVLYYVTRDDLKCLRLRGGMLCTLWKAIIDFRNKQT | Weak
MAP2K2(MEK2) (protein) MLARRKPVLPALTINPTIAEGPSPTSEGASEANLVDLQKKLEELELDEQQKKRLEAFLTQKAKVGELKDDDFERISELGAGNGGVVTKVQHRPSGLIMARKLIHLEIKPAIRNQIIRELQVLHECNSPYIVGFYGAFYSDGEISICMEHMDGGSLDQVLKEAKRIPEEILGKVSIAVLRGLAYLREKHQIMHRDVKPSNILVNSRGEIKLCDFGVSGQLIDSMANSFVGTRSYMAPERLQGTHYSVQSDIWSMGLSLVELAVGRYPIPPPDAKELEAIFGRPVVDGEEGEPHSISPRPRPPGRPVSGHGMDSRPAMAIFELLDYIVNEPPPKLPNGVFTPDFQEFVNKCLIKNPAERADLKMLTNHTFIKRSEVEEVDFAGWLCKTLRLNQPGTPTRTAV | Negative
MAP2K6(MKK6) (protein) MSQSKGKKRNPGLKIPKEAFEQPQTSSTPPRDLDSKACISIGNQNFEVKADDLEPIMELGRGAYGVVEKMRHVPSGQIMAVKRIRATVNSQEQKRLLMDLDISMRTVDCPFTVTFYGALFREGDVWICMELMDTSLDKFYKQVIDKGQTIPEDILGKIAVSIVKALEHLHSKLSVIHRDVKPSNVLINALGQVKMCDFGISGYLVDSVAKTIDAGCKPYMAPERINPELNQKGYSVKSDIWSLGITMIELAILRFPYDSWGTPFQQLKQVVEEPSPQLPADKFSAEFVDFTSQCLKKNSKERPTYPELMQHPFFTLHESKGTDVASFVKLILGD | Weak
MAP2K6, mutant (protein) MSQSKGKKRNPGLKIPKEAFEQPQTSSTPPRDLDSKACISIGNQNFEVKADDLEPIMELGRGAYGVVEKMRHVPSGQIMAVKRIRATVNSQEQKRLLMDLDISMRTVDCPFTVTFYGALFREGDVWICMELMDTSLDKFYKQVIDKGQTIPEDILGKIAVSIVKALEHLHSKLSVIHRDVKPSNVLINALGQVKMCDFGISGYLVDEVAKEIDAGCKPYMAPERINPELNQKGYSVKSDIWSLGITMIELAILRFPYDSWGTPFQQLKQVVEEPSPQLPADKFSAEFVDFTSQCLKKNSKERPTYPELMQHPFFTLHESKGTDVASFVKLILGD | Negative
MAP2K3(MEK3) (protein) MSKPPAPNPTPPRNLDSRTFITIGDRNFEVEADDLVTISELGRGAYGVVEKVRHAQSGTIMAVKRIRATVNSQEQKRLLMDLDINMRTVDCFYTVTFYGALFREGDVWICMELMDTSLDKFYRKVLDKNMTIPEDILGEIAVSIVRALEHLHSKLSVIHRDVKPSNVLINKEGHVKMCDFGISGYLVDSVAKTMDAGCKPYMAPERINPELNQKGYNVKSDVWSLGITMIEMAILRFPYESWGTPFQQLKQVVEEPSPQLPADRFSPEFVDFTAQCLRKNPAERMSYLELMEHPFFTLHKTKKTDIAAFVKEILGEDS | Negative
MAP3K11(MLK3) (protein) MEPLKSLFLKSPLGSWNGSGSGGGGGGGGGRPEGSPKAAGYANPVWTALFDYEPSGQDELALRKGDRVEVLSRDAAISGDEGWWAGQVGGQVGIFPSNYVSRGGGPPPCEVASFQELRLEEVIGIGGFGKVYRGSWRGELVAVKAARQDPDEDISVTAESVRQEARLFAMLAHPNIIALKAVCLEEPNLCLVMEYAAGGPLSRALAGRRVPPHVLVNWAVQIARGMHYLHCEALVPVIHRDLKSNNILLLQPIESDDMEHKTLKITDFGLAREWHKTTQMSAAGTYAWMAPEVIKASTFSKGSDVWSFGVLLWELLTGEVPYRGIDCLAVAYGVAVNKLTLPIPSTCPEPFAQLMADCWAQDPHRRPDFASILQQLEALEAQVLREMPRDSFHSMQEGWKREIQGLFDELRAKEKELLSREEELTRAAREQRSQAEQLRRREHLLAQWELEVFERELTLLLQQVDRERPHVRRRRGTFKRSKLRARDGGERISMPLDFKHRITVQASPGLDRRRNVFEVGPGDSPTFPRFRAIQLEPAEPGQAWGRQSPRRLEDSSNGERRACWAWGPSSPKPGEAQNGRRRSRMDEATWYLDSDDSSPLGSPSTPPALNGNPPRPSLEPEEPKRPVPAERGSSSGTPKLIQRALLRGTALLASLGLGRDLQPPGGPGRERGESPTTPPTPTPAPCPTEPPPSPLICFSLKTPDSPPTPAPLLLDLGIPVGQRSAKSPRREEEPRGGTVSPPPGTSRSAPGTPGTPRSPPLGLISRPRPSPLRSRIDPWSFVSAGPRPSPLPSPQPAPRRAPWTLFPDSDPFWDSPPANPFQGGPQDCRAQTKDMGAQAPWVPEAGP | Negative
MAP3K2(MEKK2) (protein) MDDQQALNSIMQDLAVLHKASRPALSLQETRKAKSSSPKKQNDVRVKFEHRGEKRILQFPRPVKLEDLRSKAKIAFGQSMDLHYTNNELVIPLTTQDDLDKAVELLDRSIHMKSLKILLVINGSTQATNLEPLPSLEDLDNTVFGAERKKRLSIIGPTSRDRSSPPPGYIPDELHQVARNGSFTSINSEGEFIPESMDQMLDPLSLSSPENSGSGSCPSLDSPLDGESYPKSRMPRAQSYPDNHQEFSDYDNPIFEKFGKGGTYPRRYHVSYHHQEYNDGRKTFPRARRTQGTSLRSPVSFSPTDHSLSTSSGSSIFTPEYDDSRIRRRGSDIDNPTLTVMDISPPSRSPRAPTNWRLGKLLGQGAFGRVYLCYDVDTGRELAVKQVQFDPDSPETSKEVNALECEIQLLKNLLHERIVQYYGCLRDPQEKTLSIFMEYMPGGSIKDQLKAYGALTENVTRKYTRQILEGVHYLHSNMIVHRDIKGANILRDSTGNVKLGDFGASKRLQTICLSGTGMKSVTGTPYWMSPEVISGEGYGRKADIWSVACTVVEMLTEKPPWAEFEAMAAIFKIATQPTNPKLPPHVSDYTRDFLKRIFVEAKLRPSADELLRHMFVHYH | Weak

From US20090099029
